Data published in article PMC9352680, “A comprehensive thermodynamic model for RNA binding by the Saccharomyces cerevisiae Pumilio protein PUF4”.
Numbering of substitutions follows the chain as printed. Names may count otherwise.

T1: PUF4 RNA-binding domain (Saccharomyces cerevisiae, UniProt P25339 537-888)
T1 sequence: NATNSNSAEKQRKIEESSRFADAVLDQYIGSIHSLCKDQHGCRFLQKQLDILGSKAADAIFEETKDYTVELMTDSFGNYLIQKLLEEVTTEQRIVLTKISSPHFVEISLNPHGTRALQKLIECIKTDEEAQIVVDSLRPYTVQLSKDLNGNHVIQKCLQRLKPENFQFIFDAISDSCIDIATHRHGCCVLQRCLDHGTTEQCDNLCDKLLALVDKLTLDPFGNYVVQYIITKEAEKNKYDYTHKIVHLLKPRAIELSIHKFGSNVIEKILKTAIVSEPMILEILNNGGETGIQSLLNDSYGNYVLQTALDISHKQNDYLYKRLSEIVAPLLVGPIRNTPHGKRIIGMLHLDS

B1: Id_ii_S2_P3E.2_K3.1_C3.2_[C-2A]_[T-1C]_H3.1_A3.1_F3.1_T3.2_[T9C]_[A10G] (ssRNA)
RNA: UUUGAUUAAUAUGAUAUCGUUCUUUCUACUGUAUAUACGUUCUUUCUCGAUAUCAUAUUAAUCUUU
B2: Id_ii_S2_P3E.2_K3.1_C3.2_[T-1C]_H3.1_A3.1_F3.1_T3.2_[T9A]_[A10T] (ssRNA)
RNA: B1 RNA with A28C, C38A, G39U
B3: Id_ii_S2_P3E.3_K3.2_C3.2_[C-2G]_[T-1C]_H3.2_A3.1_F3.1_T3.2_[T9A]_[A10C] (ssRNA)
RNA: B1 RNA with A28G, G31A, C38A, G39C
B4: If_S2_P3E.2_K3.1_C3.2_H3.1_A3.1_F3.1_T3.2 (ssRNA)
RNA: B1 RNA with A28C, C29U, C38U, G39A
B5: Id_ii_S2_P3E.2_K3.1_C3.2_[T-1G]_H3.1_A3.1_F3.1_T3.2_[T9G]_[A10G] (ssRNA)
RNA: B1 RNA with A28C, C29G, C38G
B6: Id_ii_S2_P3E.3_K3.2_C3.2_[C-2G]_H3.2_A3.1_F3.1_T3.2_[A10G] (ssRNA)
RNA: B1 RNA with A28G, C29U, G31A, C38U
B7: Id_ii_S2_P3E.2_K3.1_C3.2_[C-2A]_H3.1_A3.1_F3.1_T3.2_[T9C]_[A10G] (ssRNA)
RNA: B1 RNA with C29U
B8: Id_ii_S2_P3E.2_K3.1_C3.2_[C-2A]_[T-1C]_H3.1_A3.1_F3.1_T3.2_[T9A] (ssRNA)
RNA: B1 RNA with C38A, G39A
B9: Id_ii_S2_P3E.2_K3.1_C3.2_[T-1A]_H3.1_A3.1_F3.1_T3.2 (ssRNA)
RNA: B1 RNA with A28C, C29A, C38U, G39A
B10: Id_ii_S2_P3E.2_K3.1_C3.2_H3.1_A3.1_F3.1_T3.2_[A10T] (ssRNA)
RNA: B1 RNA with A28C, C29U, C38U, G39U
B11: Id_ii_S2_P3E.2_K3.1_C3.2_[T-1C]_H3.1_A3.1_F3.1_T3.2_[T9A]_[A10G] (ssRNA)
RNA: B1 RNA with A28C, C38A
B12: Id_ii_S2_P3E.2_K3.1_C3.2_[T-1C]_H3.1_A3.1_F3.1_T3.2_[T9C]_[A10G] (ssRNA)
RNA: B1 RNA with A28C
B13: Id_ii_S2_P3E.2_K3.1_C3.2_H3.1_A3.1_F3.1_T3.2_[T9A]_[A10T] (ssRNA)
RNA: B1 RNA with A28C, C29U, C38A, G39U
B14: Id_ii_S2_P3E.2_K3.1_C3.2_[T-1C]_H3.1_A3.1_F3.1_T3.2_[A10C] (ssRNA)
RNA: B1 RNA with A28C, C38U, G39C
B15: Id_ii_S2_P3E.2_K3.1_C3.2_[T-1C]_H3.1_A3.1_F3.1_T3.2_[T9G]_[A10T] (ssRNA)
RNA: B1 RNA with A28C, C38G, G39U
B16: Id_ii_S2_P3E.2_K3.1_C3.2_[C-2A]_[T-1A]_H3.1_A3.1_F3.1_T3.2_[T9A]_[A10T] (ssRNA)
RNA: B1 RNA with C29A, C38A, G39U
B17: Id_ii_S2_P3E.2_K3.1_C3.2_[C-2A]_H3.1_A3.1_F3.1_T3.2 (ssRNA)
RNA: B1 RNA with C29U, C38U, G39A
B18: Id_ii_S2_P3E.2_K3.1_C3.2_[T-1A]_H3.1_A3.1_F3.1_T3.2_[T9A]_[A10G] (ssRNA)
RNA: B1 RNA with A28C, C29A, C38A
B19: Id_ii_S2_P3E.2_K3.1_C3.2_[T-1A]_H3.1_A3.1_F3.1_T3.2_[T9A]_[A10T] (ssRNA)
RNA: B1 RNA with A28C, C29A, C38A, G39U
B20: Id_ii_S2_P3E.2_K3.1_C3.2_[T-1G]_H3.1_A3.1_F3.1_T3.2_[T9A]_[A10G] (ssRNA)
RNA: B1 RNA with A28C, C29G, C38A
B21: Id_ii_S2_P3E.3_K3.2_C3.2_[C-2G]_H3.2_A3.1_F3.1_T3.2_[T9A]_[A10T] (ssRNA)
RNA: B1 RNA with A28G, C29U, G31A, C38A, G39U
B22: Id_ii_S2_P3E.2_K3.1_C3.2_[T-1A]_H3.1_A3.1_F3.1_T3.2_[A10T] (ssRNA)
RNA: B1 RNA with A28C, C29A, C38U, G39U
B23: Id_ii_S2_P3E.2_K3.1_C3.2_H3.1_A3.1_F3.1_T3.2_[A10C] (ssRNA)
RNA: B1 RNA with A28C, C29U, C38U, G39C
B24: Id_ii_S2_P3E.2_K3.1_C3.2_[T-1C]_H3.1_A3.1_F3.1_T3.2_[A10T] (ssRNA)
RNA: B1 RNA with A28C, C38U, G39U
B25: Id_ii_S2_P3E.2_K3.1_C3.2_[C-2A]_H3.1_A3.1_F3.1_T3.2_[T9C]_[A10C] (ssRNA)
RNA: B1 RNA with C29U, G39C
B26: Id_ii_S2_P3E.2_K3.1_C3.2_[C-2A]_H3.1_A3.1_F3.1_T3.2_[A10T] (ssRNA)
RNA: B1 RNA with C29U, C38U, G39U
B27: Id_ii_S2_P3E.2_K3.1_C3.2_[T-1C]_H3.1_A3.1_F3.1_T3.2_[T9A]_[A10C] (ssRNA)
RNA: B1 RNA with A28C, C38A, G39C
B28: Id_ii_S2_P3E.2_K3.1_C3.2_[C-2A]_[T-1C]_H3.1_A3.1_F3.1_T3.2_[A10C] (ssRNA)
RNA: B1 RNA with C38U, G39C
B29: Id_ii_S2_P3E.2_K3.1_C3.2_[T-1G]_H3.1_A3.1_F3.1_T3.2_[T9A]_[A10T] (ssRNA)
RNA: B1 RNA with A28C, C29G, C38A, G39U
B30: Id_ii_S2_P3E.3_K3.2_C3.2_[C-2G]_[T-1C]_H3.2_A3.1_F3.1_T3.2_[T9C]_[A10C] (ssRNA)
RNA: B1 RNA with A28G, G31A, G39C
B31: Id_ii_S2_P3E.2_K3.1_C3.2_H3.1_A3.1_F3.1_T3.2_[T9A] (ssRNA)
RNA: B1 RNA with A28C, C29U, C38A, G39A
B32: Id_ii_S2_P3E.2_K3.1_C3.2_[C-2A]_[T-1A]_H3.1_A3.1_F3.1_T3.2_[T9G]_[A10C] (ssRNA)
RNA: B1 RNA with C29A, C38G, G39C
B33: Id_ii_S2_P3E.3_K3.2_C3.2_[C-2G]_H3.2_A3.1_F3.1_T3.2_[T9C]_[A10G] (ssRNA)
RNA: B1 RNA with A28G, C29U, G31A
B34: Id_ii_S2_P3E.2_K3.1_C3.2_[C-2A]_[T-1A]_H3.1_A3.1_F3.1_T3.2_[A10T] (ssRNA)
RNA: B1 RNA with C29A, C38U, G39U
B35: Id_ii_S2_P3E.2_K3.1_C3.2_[C-2A]_[T-1A]_H3.1_A3.1_F3.1_T3.2_[A10G] (ssRNA)
RNA: B1 RNA with C29A, C38U
B36: Id_ii_S2_P3E.3_K3.2_C3.2_[C-2G]_H3.2_A3.1_F3.1_T3.2_[T9C]_[A10C] (ssRNA)
RNA: B1 RNA with A28G, C29U, G31A, G39C
B37: Id_ii_S2_P3E.2_K3.1_C3.2_H3.1_A3.1_F3.1_T3.2_[T9G]_[A10T] (ssRNA)
RNA: B1 RNA with A28C, C29U, C38G, G39U
B38: Id_ii_S2_P3E.2_K3.1_C3.2_H3.1_A3.1_F3.1_T3.2_[T9G]_[A10C] (ssRNA)
RNA: B1 RNA with A28C, C29U, C38G, G39C
B39: Id_ii_S2_P3E.2_K3.1_C3.2_[T-1G]_H3.1_A3.1_F3.1_T3.2_[A10T] (ssRNA)
RNA: B1 RNA with A28C, C29G, C38U, G39U
B40: Id_ii_S2_P3E.2_K3.1_C3.2_[T-1A]_H3.1_A3.1_F3.1_T3.2_[T9C]_[A10T] (ssRNA)
RNA: B1 RNA with A28C, C29A, G39U
B41: Id_ii_S2_P3E.3_K3.2_C3.2_[C-2G]_[T-1G]_H3.2_A3.1_F3.1_T3.2_[A10T] (ssRNA)
RNA: B1 RNA with A28G, C29G, G31A, C38U, G39U
B42: Id_ii_S2_P3E.3_K3.2_C3.2_[C-2G]_[T-1C]_H3.2_A3.1_F3.1_T3.2_[A10T] (ssRNA)
RNA: B1 RNA with A28G, G31A, C38U, G39U
B43: Id_ii_S2_P3E.2_K3.1_C3.2_[T-1A]_H3.1_A3.1_F3.1_T3.2_[A10C] (ssRNA)
RNA: B1 RNA with A28C, C29A, C38U, G39C
B44: Id_ii_S2_P3E.3_K3.2_C3.2_[C-2G]_[T-1G]_H3.2_A3.1_F3.1_T3.2_[T9A] (ssRNA)
RNA: B1 RNA with A28G, C29G, G31A, C38A, G39A
B45: Id_ii_S2_P3E.2_K3.1_C3.2_[C-2A]_H3.1_A3.1_F3.1_T3.2_[T9C]_[A10T] (ssRNA)
RNA: B1 RNA with C29U, G39U
B46: Id_ii_S2_P3E.2_K3.1_C3.2_H3.1_A3.1_F3.1_T3.2_[A10G] (ssRNA)
RNA: B1 RNA with A28C, C29U, C38U
B47: Id_ii_S2_P3E.3_K3.2_C3.2_[C-2G]_[T-1G]_H3.2_A3.1_F3.1_T3.2_[T9A]_[A10C] (ssRNA)
RNA: B1 RNA with A28G, C29G, G31A, C38A, G39C
B48: Id_ii_S2_P3E.2_K3.1_C3.2_[T-1A]_H3.1_A3.1_F3.1_T3.2_[T9G]_[A10T] (ssRNA)
RNA: B1 RNA with A28C, C29A, C38G, G39U
B49: Id_ii_S2_P3E.2_K3.1_C3.2_[T-1A]_H3.1_A3.1_F3.1_T3.2_[T9A] (ssRNA)
RNA: B1 RNA with A28C, C29A, C38A, G39A

Target: T1, PUF4 RNA-binding domain
Experiment: Mg; RNA-MaP; 20 mM Na-HEPES pH 7.4, 30 mM KOAc, 0.75 mM MgCl2, 0.1% Tween-20, 5% glycerol, 0.1 mg/mL BSA, 2 mM DTT; 25 C; 0.0125-409.6 nM protein
Details: tags: N-His6-TEV cleaved; C-SNAP kept, Cy3B-labelled; label: tethered on chip by stalled RNA polymerase

Binder | Kd [nM]
UCUCUUUGUUUUAGUAUCUCUU (ssRNA) [Ib_S1_P5E.1_K5.1_C5.1_H5.1_[A4T]_A5.1_F5.1_[T8G]_T5.1] | 70.8
B1 | 49.4
B2 | 1.48
B3 | 592
B4 | 1.16
B5 | 10.2
B6 | 22.9
B7 | 19
B8 | 3.66
B9 | 1.35
B10 | 1.32
B11 | 4.04
B12 | 4.24
B13 | 1.9
B14 | 0.998
B15 | 2.32
B16 | 10.1
B17 | 5.13
B18 | 15.2
B19 | 2.96
B20 | 7.62
B21 | 36.2
B22 | 1.78
B23 | 1.61
B24 | 1.22
B25 | 6.81
B26 | 3.05

Binder | Kd [nM]
B27 | 2.58
B28 | 1.69
B29 | 1.85
B30 | 329
B31 | 2.73
B32 | 10
B33 | 291
B34 | 6.37
B35 | 7.2
B36 | 31.2
B37 | 4.32
B38 | 2.46
B39 | 1.39
B40 | 5.2
B41 | 137
B42 | 86.4
B43 | 2.36
B44 | 872
B45 | 8.7
B46 | 2.02
B47 | 1450
B48 | 3.93
B49 | 3.89
UCUCUUUAUAUUAAUAUCUCUU (ssRNA) [Ib_S1_P5E.1_K5.1_C5.1_H5.1_[G2A]_A5.1_F5.1_[T8A]_T5.1] | 698
UCUCUUUGUGUUACUAUCUCUU (ssRNA) [Ib_S1_P5E.1_K5.1_C5.1_H5.1_[A4G]_A5.1_F5.1_[T8C]_T5.1] | 51.5
UCUCUUUGCAUUACUAUCUCUU (ssRNA) [Ib_S1_P5E.1_K5.1_C5.1_H5.1_[T3C]_A5.1_F5.1_[T8C]_T5.1] | 1370
